We go through 26 molecules from patent US20240400654A1.

Substitutions are numbered along the chain they refer to. In names and notes the source's numbering stands. Several values for one entry are separate records, joined by “and”; a condition that tells them apart may be missing. Equal values may be shown once.

Assay [1] has as its target HRgpA-6H (Porphyromonas gingivalis) (UniProt P28784). Briefly: ELISA, FASEBA Fab supernatant on coated HRgpA-6H.
For assay [2] the target is unchanged. The assay is described as follows: ELISA on coated HRgpA-6H, OD relative to parental Fab.
For assay [3] the target is unchanged. The assay is described as follows: ELISA, coated HRgpA-6H. (ELISA stands for enzyme-linked immunosorbent assay.)

Chain of UniProt P28784 (P28784 228-860 limits assumed): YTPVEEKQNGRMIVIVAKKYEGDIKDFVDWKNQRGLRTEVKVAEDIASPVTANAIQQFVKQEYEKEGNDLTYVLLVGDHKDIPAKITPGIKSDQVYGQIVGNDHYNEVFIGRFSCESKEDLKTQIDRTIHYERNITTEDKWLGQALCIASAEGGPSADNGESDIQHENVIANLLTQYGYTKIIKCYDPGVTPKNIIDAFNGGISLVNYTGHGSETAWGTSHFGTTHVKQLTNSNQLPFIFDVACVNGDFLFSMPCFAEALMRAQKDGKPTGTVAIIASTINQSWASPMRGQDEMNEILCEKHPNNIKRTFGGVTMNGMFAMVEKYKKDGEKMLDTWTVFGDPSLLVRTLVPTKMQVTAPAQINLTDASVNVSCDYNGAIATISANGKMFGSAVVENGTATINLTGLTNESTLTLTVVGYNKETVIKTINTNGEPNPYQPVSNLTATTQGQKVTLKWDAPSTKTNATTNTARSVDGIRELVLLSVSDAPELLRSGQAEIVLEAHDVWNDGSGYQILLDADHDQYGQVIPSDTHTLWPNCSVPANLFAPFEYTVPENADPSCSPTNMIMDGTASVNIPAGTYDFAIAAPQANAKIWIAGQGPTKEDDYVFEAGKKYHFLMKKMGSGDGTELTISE

B1: KB001 mouse Fab variant VL L55R/S51G (Fab, V domains shown)
VH: EVQLKQSGPGLVAPSQSLSITCTVSGFSLSIYSVHWVRQPPGKGLEWLGMIWGGGSSDYNSALKSRLSISKDNSKSQVFLKMNSLQTDDTAMYYCARNGNFYAMDYWGQGTSVTVSS
VL: QIVLTQSPAIMSASLGERVTMTCTASSSVSSSFLHWYQQKPGSSPQLWIYGTSNRASGVPARFSGSGSGTSYSLTISSMEAEDAATYYCHQYHHSPYIYTFGGGTKLEIK
In turn, B1 had an OD450 nm in assay [1] of 0.748. Also, the Ratio OD(Variant)/OD(WT) in assay [2] was 0.955 fold.

B2: KB001 mouse Fab variant VL A56S (Fab, V domains shown)
VH: B1 VH
VL: B1 VL with G51S, R55L, A56S
For the molecule B2, in assay [1], the OD450 nm is 0.772 and 0.751 and 0.774. In addition, in assay [2], the Ratio OD(Variant)/OD(WT) was 0.947 fold and 0.921 fold and 0.949 fold.

B3: KB001 mouse Fab variant VL H90L (Fab, V domains shown)
VH: B1 VH
VL: B1 VL with G51S, R55L, H90L
With B3, the OD450 nm in assay [1] is 0.785 and 0.694. Besides, the Ratio OD(Variant)/OD(WT) in assay [2] was 0.911 fold and 0.806 fold.

B4: KB001 mouse Fab variant VL A56M (Fab, V domains shown)
VH: B1 VH
VL: B1 VL with G51S, R55L, A56M
With B4, in assay [1], the OD450 nm was 0.802 and 0.701. In assay [2], the Ratio OD(Variant)/OD(WT) was 0.983 fold and 0.86 fold.

B5: KB001 mouse Fab variant VL S57A (Fab, V domains shown)
VH: B1 VH
VL: B1 VL with G51S, R55L, S57A
B5: the OD450 nm in assay [1] worked out at 0.806. Moreover, the Ratio OD(Variant)/OD(WT) in assay [2] stood at 0.988 fold.

B6: KB001 mouse Fab variant VL L55S (Fab, V domains shown)
VH: B1 VH
VL: B1 VL with G51S, R55S
In the case of B6, the OD450 nm in assay [1] worked out at 0.655. In addition, the Ratio OD(Variant)/OD(WT) in assay [2] stood at 0.836 fold.

B7: KB001 mouse Fab variant VL S57M (Fab, V domains shown)
VH: B1 VH
VL: B1 VL with G51S, R55L, S57M
The molecule B7 registered an OD450 nm in assay [1] of 0.745. Moreover, the Ratio OD(Variant)/OD(WT) in assay [2] was 0.914 fold.

B8: KB001 mouse Fab variant VL S57E (Fab, V domains shown)
VH: B1 VH
VL: B1 VL with G51S, R55L, S57E
B8 returned an OD450 nm in assay [1] of 0.751. The Ratio OD(Variant)/OD(WT) in assay [2] was found to be 0.921 fold.

B9: KB001 mouse Fab VL T100D (Fab, V domains shown)
VH: B1 VH
VL: B1 VL with G51S, R55L, T100D
For B9, in assay [3], the OD450 nm was 0.645 and the Ratio OD(Variant)/OD(WT) worked out at 1.23.

B10: KB001 mouse Fab variant VL S57W (Fab, V domains shown)
VH: B1 VH
VL: B1 VL with G51S, R55L, S57W
Consider B10, for which the OD450 nm in assay [1] came to 0.784. Further, in assay [2], the Ratio OD(Variant)/OD(WT) worked out at 0.961 fold.

B11: KB001 mouse Fab variant VL L55Q (Fab, V domains shown)
VH: B1 VH
VL: B1 VL with G51S, R55Q
B11 showed an OD450 nm in assay [1] of 0.662. The Ratio OD(Variant)/OD(WT) in assay [2] is 0.845 fold.

B12: KB001 mouse Fab variant VL S57K (Fab, V domains shown)
VH: B1 VH
VL: B1 VL with G51S, R55L, S57K
In assay [1], B12 returned an OD450 nm of 0.712. For the same molecule, the Ratio OD(Variant)/OD(WT) in assay [2] stood at 0.873 fold.

B13: KB001 mouse Fab variant VL S57L (Fab, V domains shown)
VH: B1 VH
VL: B1 VL with G51S, R55L, S57L
Molecule B13 had an OD450 nm in assay [1] of 0.781. The Ratio OD(Variant)/OD(WT) in assay [2] worked out at 0.958 fold.

B14: KB001 mouse Fab variant VL A56R (Fab, V domains shown)
VH: B1 VH
VL: B1 VL with G51S, R55L, A56R
As to B14, the OD450 nm in assay [1] is 0.728 and 0.734 and 0.751. The Ratio OD(Variant)/OD(WT) in assay [2] was 0.893 fold and 0.9 fold and 0.921 fold.

B15: KB001 mouse Fab variant VL S57I (Fab, V domains shown)
VH: B1 VH
VL: B1 VL with G51S, R55L, S57I
For the molecule B15, the OD450 nm in assay [1] amounted to 0.791. The Ratio OD(Variant)/OD(WT) in assay [2] stood at 0.97 fold.

B16: KB001 mouse Fab variant VL S57F (Fab, V domains shown)
VH: B1 VH
VL: B1 VL with G51S, R55L, S57F
As for B16, the OD450 nm in assay [1] was 0.785 and 0.787 and 0.797. The Ratio OD(Variant)/OD(WT) in assay [2] is 0.963 fold and 0.965 fold and 0.977 fold.

B17: KB001 mouse Fab variant VL S57N (Fab, V domains shown)
VH: B1 VH
VL: B1 VL with G51S, R55L, S57N
In assay [1], B17 yielded an OD450 nm of 0.813. In addition, the Ratio OD(Variant)/OD(WT) in assay [2] amounted to 0.997 fold.

B18: KB001 mouse Fab variant VL A56T (Fab, V domains shown)
VH: B1 VH
VL: B1 VL with G51S, R55L, A56T
On to B18, for which, in assay [1], the OD450 nm is 0.731. In assay [2], the Ratio OD(Variant)/OD(WT) stood at 0.896 fold.

B19: KB001 mouse Fab variant VL S57Q (Fab, V domains shown)
VH: B1 VH
VL: B1 VL with G51S, R55L, S57Q
Molecule B19 displayed an OD450 nm in assay [1] of 0.658. In addition, the Ratio OD(Variant)/OD(WT) in assay [2] is 0.807 fold.

B20: KB001 mouse Fab variant VL L55H (Fab, V domains shown)
VH: B1 VH
VL: B1 VL with G51S, R55H
In the case of B20, the OD450 nm in assay [1] turned out to be 0.64. Also, the Ratio OD(Variant)/OD(WT) in assay [2] was determined as 0.817 fold.

B21: KB001 mouse Fab variant VL A56V (Fab, V domains shown)
VH: B1 VH
VL: B1 VL with G51S, R55L, A56V
For B21, the OD450 nm in assay [1] is 0.794 and 0.795. Further, the Ratio OD(Variant)/OD(WT) in assay [2] is 0.974 fold and 0.975 fold.

B22: KB001 mouse Fab variant VL S57R (Fab, V domains shown)
VH: B1 VH
VL: B1 VL with G51S, R55L, S57R
B22 showed an OD450 nm in assay [1] of 0.746. For the same molecule, the Ratio OD(Variant)/OD(WT) in assay [2] was 0.915 fold.

B23: KB001 mouse Fab variant VL A56N (Fab, V domains shown)
VH: B1 VH
VL: B1 VL with G51S, R55L, A56N
For B23, in assay [1], the OD450 nm is 0.712 and 0.775. In addition, in assay [2], the Ratio OD(Variant)/OD(WT) was 0.873 fold and 0.95 fold.

B24: KB001 mouse Fab variant VL A56Q (Fab, V domains shown)
VH: B1 VH
VL: B1 VL with G51S, R55L, A56Q
In turn, B24 showed an OD450 nm in assay [1] of 0.705. Also, in assay [2], the Ratio OD(Variant)/OD(WT) is 0.865 fold.

B25: KB001 mouse Fab VL T100K (Fab, V domains shown)
VH: B1 VH
VL: B1 VL with G51S, R55L, T100K
As for B25, in assay [3], the OD450 nm is 0.625 and the Ratio OD(Variant)/OD(WT) was found to be 1.19.

B26: KB001 mouse Fab variant VL A56P (Fab, V domains shown)
VH: B1 VH
VL: B1 VL with G51S, R55L, A56P
For the molecule B26, in assay [1], the OD450 nm was found to be 0.748. Besides, in assay [2], the Ratio OD(Variant)/OD(WT) came to 0.917 fold.
